For the test, the target named is T1, human gp130 extracellular domain (E23-E619) with C-terminal mouse IgG2a Fc (human).
T1 construct: dimeric; also called hGP130-mFc; human GP130-mFc
T1 chain: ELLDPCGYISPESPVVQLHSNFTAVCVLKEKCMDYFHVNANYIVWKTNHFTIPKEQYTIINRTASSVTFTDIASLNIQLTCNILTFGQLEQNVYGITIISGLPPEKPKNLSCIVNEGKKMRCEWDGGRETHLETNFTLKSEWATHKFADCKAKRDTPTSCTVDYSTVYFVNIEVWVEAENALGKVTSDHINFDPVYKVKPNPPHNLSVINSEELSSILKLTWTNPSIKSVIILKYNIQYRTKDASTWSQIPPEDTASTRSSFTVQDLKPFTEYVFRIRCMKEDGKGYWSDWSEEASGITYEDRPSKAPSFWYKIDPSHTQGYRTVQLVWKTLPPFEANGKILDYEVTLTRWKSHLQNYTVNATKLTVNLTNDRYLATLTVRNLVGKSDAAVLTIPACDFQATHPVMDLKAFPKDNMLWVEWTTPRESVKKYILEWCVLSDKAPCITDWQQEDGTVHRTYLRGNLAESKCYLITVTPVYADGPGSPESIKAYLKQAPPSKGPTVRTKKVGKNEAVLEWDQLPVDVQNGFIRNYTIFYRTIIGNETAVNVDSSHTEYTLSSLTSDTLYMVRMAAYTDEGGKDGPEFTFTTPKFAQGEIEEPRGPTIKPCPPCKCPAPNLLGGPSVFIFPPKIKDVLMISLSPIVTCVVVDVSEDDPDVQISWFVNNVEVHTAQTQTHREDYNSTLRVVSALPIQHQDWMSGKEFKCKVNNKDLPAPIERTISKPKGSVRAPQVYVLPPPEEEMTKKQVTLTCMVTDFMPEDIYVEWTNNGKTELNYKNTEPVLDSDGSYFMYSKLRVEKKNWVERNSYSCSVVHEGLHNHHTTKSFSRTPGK
In words: blocking ELISA, 2.5 nM hGP130-mFc on plate-bound CNTFR/CNTF complex; * below lower limit of quantitation 1.25E-09M. The procedure: The experiment was carried out using the following procedure. Human CNTFRα was coated at a concentration of […] in HBSS on a 96-well microtiter plate overnight at 4° C. […] Human CNTF at a concentration of 1 μg/ml in HBSS was added to the plate bound CNTFRα for 1 hour at room temperature. In separate dilution plates, a constant amount of 2.5 nM of human GP130-mFc protein was titrated with antibodies ranging from 3.4 pM to 200 nM in serial dilution and with no antibody present. These solutions were incubated for 1 hour at room temperature (RT) and subsequently transferred to the microtiter plates with CNTFRα/CNTF complex without washing. The plates were incubated for 2 hours at RT, washed with PBST buffer, and plate-bound hGP130-mFc was detected with an anti-mFc polyclonal antibody conjugated with horseradish peroxidase (HRP) (Jackson ImmunoResearch Inc). Samples were developed with a TMB solution (BD Biosciences, substrate A and B mixed at 1:1 ratio as per manufacturer's instructions) to produce a colorimetric reaction and then neutralized with 1M sulfuric acid before measuring absorbance at 450 nm on a Victor X5 plate reader.
Data analysis was performed using a sigmoidal dose-response model within Prism™ software (GraphPad). […]
(An ELISA detects its analyte on a solid surface through an enzyme-linked reagent.)

B1: MAb16666 (antibody, V domains shown)
VH: EVQLVESGGGLVQSGGSLRLSCAASGFTFSRYEMNWVRQAPGKGLEWVAYISNTGTTRDYSDSVKGRFTISRDNAKNSLYLQMSSLRVEDTAVYYCVREKFSGTSDWFDPWGQGTLVTVSS
VL: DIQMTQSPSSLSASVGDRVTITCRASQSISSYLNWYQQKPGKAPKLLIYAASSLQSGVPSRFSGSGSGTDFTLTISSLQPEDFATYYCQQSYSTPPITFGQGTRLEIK
notes: hIgG4 isotype control used
As a reminder, the IC50 is the midpoint of a concentration-inhibition curve. Low readings indicate greater potency, high ones weaker potency. The molecule B1 displayed an IC50 of 0.644 nM.

The record behind these values is patent US20240158497A1 (published 2024).
